Positions of bridges follow the written chain, without caps; N, C: chain ends. No end group written: not given here.
Legend:
[1] = target: T1, receptor for epidermic growth factor (EGF-R) on Capan-1 and A431 cells (human (human cell line Capan-1), UniProt P00533 25-1210); test: competition with 125I-EGF on Capan-1 cells, two-site fit (Graphpad Inplot4); low affinity site
T1 construct: whole, on cells; both are called EGF receptors; also called EGF receptor; receptor of EGF
Method: (§1) From the previous adjustment, the value of $IC50$ for the two binding sites and the percentage of each type of binding sites was determined.

[2] = target: T1, receptor for epidermic growth factor …; test: competition with 125I-EGF on Capan-1 cells, two-site fit (Graphpad Inplot4); high affinity site
Method: as §1

B1: potato carboxypeptidase inhibitor, isoform IIa, recombinant (other)
chain: EQHADPICNKPCKTHDDCSGAWFCQACWNSARTCGPYVG
modifications: disulfide 12-27, 18-34, 8-24
notes: Secreted from E. coli MC1061 (pIMAM3, OmpA signal peptide directly before the first codon of native PCI); also called PCI; rPCI
IC50 [1]: 579 µM
IC50 [2]: 0.014 nM
